Target: TaMYB-D7b (2174 allele, Gly-50) (Triticum aestivum cv. 2174, UniProt A0A410P7J2)
Test: EMSA; EMSA: 100 fmol biotin probe, 1 ug protein, 20 uL, 1x binding buffer, 2.5% glycerol, 5 mM MgCl2, 1 ug poly(dI-dC), room temperature 30 min; pH and salt not given
Details: protein: recombinant; tags: His (pET32a vector); label: 5'-biotin

TaMYB-D7b (2174 allele, Gly-50), sequence (A0A410P7J2 entry or part of it): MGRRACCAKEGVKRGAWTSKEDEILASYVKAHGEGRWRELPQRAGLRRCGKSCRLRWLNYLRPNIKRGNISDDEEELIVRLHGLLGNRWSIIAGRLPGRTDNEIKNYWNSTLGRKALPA

B1: TaCHSL-A2 promoter probe (27 bp) (dsDNA)
DNA 1: TGCAAAGAAAACCAACCAACACTTACC
DNA 2: GGTAAGTGTTGGTTGGTTTTCTTTGCA
binding result: binds
